Assay [1] has as its target T1, human CD8α on primary CD8+ T cells (human, UniProt P01732 22-235).
T1 construct: Endogenous CD8 on T cells from PBMC; also called CD8+ primary T cells; human primary CD8+ cells
The assay is described as follows: flow cytometry on PBMC, 2 µg/mL mAb, positive cells among EMRA CD8 T cells, Donor 2. The method, then:
(§1) Frozen PBMCs were thawed and resuspended in FACS buffer (PBS+2% FBS). Cells were then incubated with Fc block for 15 min at 4 C prior to incubation with 2 μg/mL of each CD8α hinge binders at room temperature for 45 min. […] After staining, cells were washed with FACS buffer twice and resuspended in 100 μl PBS containing DAPI for acquisition. Cells were first gated on FSC/SSC, followed by live cell gating (DAPI negative cells) followed by singlet gating. CD3 T cells were identified using FSC versus CD3 dot plot. Within the CD3 T cells, CD4 and CD8 T cells were gated. Naïve, Effector, EM and CM cells were identified within the CD8 T cells using CD45RA and CD27 dot plot. Within each of the cell types, the secondary only control was used to set the gates to identify the positive stained population. The percentage of positive cells in CD8+ T cell population with binding to CD8α hinge binders were quantified and summarized in Table 13.

The target in assay [2] is T1, human CD8α on primary CD8+ T cells. The assay is described as follows: flow cytometry on PBMC, 2 µg/mL mAb, positive cells among CD8+ T cells, Donor 1. The method, then:
as §1

Assay [3] deals with T2, soluble CAR extracellular domain (ECD) containing scFv and CD8α hinge (UniProt P01732 138-182, biotinylated).
T2 construct: domain: CD8α hinge; also called soluble CAR ECD; CAR ECD
In words: BLI (OctetRed384), biotinylated CAR ECD on streptavidin tips; the cell stands under the head 'KD (M)' (heads shifted). As for the experimental part: (§2) To determine the binding affinity and kinetics of mAbs to CD8α hinge, soluble CAR extracellular domains (ECD) containing scFv and CD8α hinge was generated for Bio-layer interferometry (BLI) analysis using OctetRed384 (Sartorius). The CAR ECD was biotinylated and loaded to streptavidin sensor tip. Then mAbs were associated to the sensor and followed by disassociation in the assay buffer. Data was analyzed by Octet software (Sartorius).

Assay [4] addresses T2, soluble CAR extracellular domain (ECD) …. In words: BLI (OctetRed384), GC5W48-Btn (biotinylated CAR ECD) loaded on streptavidin tip, mAb in solution; second of two table rows; column head 'kdis (1/s)'. The method, then: as §2
For assay [5] the target is unchanged. The assay is described as follows: BLI (OctetRed384), GC5W48-Btn (biotinylated CAR ECD) loaded on streptavidin tip, mAb in solution; first of two table rows; column head 'kdis (1/s)'. As for the experimental part:
as §2

For assay [6], the target named is T1, human CD8α on primary CD8+ T cells. The assay is described as follows: flow cytometry on PBMC, 2 µg/mL mAb, positive cells among CD8+ T cells, Donor 2. The method, then:
as §1
Background: Flow cytometry measures light scatter and fluorescence of single cells or particles in a stream.

The target of assay [7] is T2, soluble CAR extracellular domain (ECD) …. In words: BLI (OctetRed384), biotinylated CAR ECD on streptavidin tips; the cell stands under the head 'kd (1/s)' (heads shifted). The method, then: as §2
The target in assay [8] is T1, human CD8α on primary CD8+ T cells. The assay is described as follows: flow cytometry on PBMC, 2 µg/mL mAb, positive cells among EM CD8 T cells, Donor 1. The method, then:
as §1

Assay [9] concerns the target T2, soluble CAR extracellular domain (ECD) …. The assay is described as follows: BLI (OctetRed384), GC5W48-Btn loaded on streptavidin tip; row 'average'; the sheet puts this number under 'kon (1/Ms)', Table 14 of the text under 'kd (1/s)'. The method, then: as §2
Assay [10] shares this target. In words: BLI (OctetRed384), GC5W48-Btn (biotinylated CAR ECD) loaded on streptavidin tip, mAb in solution; second of two table rows. As for the experimental part: as §2
The target is the same in assay [11]. The assay is described as follows: BLI (OctetRed384), GC5W48-Btn loaded on streptavidin tip; row 'average'; the sheet puts this number under 'kdis (1/s)', Table 14 of the text under 'KD (M)'. As for the experimental part: as §2
In assay [12] the target is T1, human CD8α on primary CD8+ T cells. The assay is described as follows: flow cytometry on PBMC, 2 µg/mL mAb, positive cells among EM CD8 T cells, Donor 2. As for the experimental part: as §1
Assay [13] addresses T3, CAR with CD8α hinge as the spacer, expressed on Jurkat CAR-T cells.
T3 construct: domain: CD8α hinge; also called CD8α hinge expressed on the Jurkat CAR-T cells
In words: flow cytometry (iQue) on Jurkat CAR-T cells, A647 anti-human IgG Fc detection. As for the experimental part:
mAbs were 1:3 serially diluted ranging from 100 nM to 1.7 pM and were incubated with cell mixture containing Jurkat CAR-T cells (unstained), Jurkat cells (CTV dye stained) and Sup-T1 cells (CSFE dye stained) in assay media (RPMI 1640+10% HI FBS+Pen/strep) for 1 hr at 37° C. […] Cells were then washed and analyzed by iQue screener (Intellicyt®). ForeCyt software was used for data analysis. The ratio of geomean of AF647 fluorescent signal from sample over the isotype control antibody (Signal) was used for the dose-dependent plot (FIGS. 2A-2F).

Assay [14] deals with T2, soluble CAR extracellular domain (ECD) …. In words: BLI (OctetRed384), biotinylated CAR ECD on streptavidin tips; the cell stands under the head 'ka (1/Ms)' but the text gives 5.58 nM as the affinity (heads shifted). The method, then:
as §2

For assay [15] the target is unchanged. The assay is described as follows: BLI (OctetRed384), GC5W48-Btn (biotinylated CAR ECD) loaded on streptavidin tip, mAb in solution; first of two table rows. The method, then: as §2
Assay [16] has as its target T1, human CD8α on primary CD8+ T cells. In words: flow cytometry on PBMC, 2 µg/mL mAb, positive cells among EMRA CD8 T cells, Donor 1. As for the experimental part:
as §1

What is called koff is a measure of how fast the partners let go of each other. As a reminder, the kon is the second-order rate constant of association. For orientation: Kd means the constant that tells how readily two partners part at equilibrium. As a reminder, the EC50 is the concentration needed to bring the measured effect to its halfway point. A higher EC50 goes with a need for much substance.

T2 sequence (P01732 138-182): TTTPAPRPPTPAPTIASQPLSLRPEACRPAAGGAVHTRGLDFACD
T1 sequence (P01732 22-235): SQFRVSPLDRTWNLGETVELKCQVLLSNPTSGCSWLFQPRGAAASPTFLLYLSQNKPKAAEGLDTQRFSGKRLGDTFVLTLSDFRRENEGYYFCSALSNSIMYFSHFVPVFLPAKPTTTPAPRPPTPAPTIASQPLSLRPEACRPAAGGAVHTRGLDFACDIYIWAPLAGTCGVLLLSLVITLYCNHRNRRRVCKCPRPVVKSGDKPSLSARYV
T3 sequence (P01732 138-182): as the sequence (P01732 138-182) above

B1: CD8B612 (antibody, human IgG1, kappa)
heavy: not shown
light: DIVMTQTPLSLPVSLGDQASISCRSSQNIVHSNGNTYLEWYLQKPGQSPKLLIYRVSKRFSGVPDRFSGSGSGTDFTLKITRVEAEDLGVYYCFQGSHVPWTFGGGTKLEIKRTVAAPSVFIFPPSDEQLKSGTASVVCLLNNFYPREAKVQWKVDNALQSGNSQESVTEQDSKDSTYSLSSTLTLSKADYEKHKVYACEVTHQGLSSPVTKSFNRGEC
notes: Mouse variable regions on human IgG1 / human kappa constant regions
Consider B1, for which the “Binding+ in EMRA (%)” value in assay [1] was found to be 7.67%; in assay [16], 67.6%. The “Binding in CD8+ cells (%)” value in assay [2] is 71.6%; in [6], 32.9%. The off-rate (koff) in assay [3] amounted to 0.00135 s⁻¹; in assay [4] it was 0.00156 s⁻¹; in [5], 0.00114 s⁻¹; in assay [11] it was 0.00135 s⁻¹. Also, the kon was 241000 M⁻¹ s⁻¹ in [7], 241000 M⁻¹ s⁻¹ in assay [9], 245000 M⁻¹ s⁻¹ in [10] and 237000 M⁻¹ s⁻¹ in assay [15]. Besides, the “Binding+ in EM (%)” value in assay [8] is 65.1%; in [12], 72.8%. The figures for the dissociation constant Kd in [10], in assay [14] and in assay [15] were 6.35 nM, 5.58 nM and 4.81 nM, respectively. The EC50 in [13] is 2.9 nM.

(Values after US20230174651A1 (Janssen / Centocor, published 2023).)
